The target of assay [1] is T1, Hu/NoV/GII.3/CHDC4031/1988/U.S. VLP (human norovirus GII.3).
T1 construct: mature; baculovirus VLP; VP2 may be present
Nature of the assay: VLP ELISA. For orientation: An ELISA detects its analyte on a solid surface through an enzyme-linked reagent.

The target in assay [2] is T2, Hu/NoV/GII.4/RockvilleD1/2012/U.S. VLP (human norovirus GII.4).
T2 construct: mature; baculovirus VLP; VP2 may be present
Kind of assay: VLP ELISA.

Assay [3] concerns the target T3, Hu/NoV/Snow Mountain/GII.2/U.S. VLP (human norovirus GII.2).
T3 construct: mature; baculovirus VLP; VP2 may be present
Nature of the assay: VLP ELISA.

Assay [4] deals with T4, Hu/NoV/GII.4/CHDC4871/1977/U.S. VLP (human norovirus GII.4).
T4 construct: mature; baculovirus VLP; VP2 may be present
Nature of the assay: VLP ELISA.

The target in assay [5] is T5, Hu/NoV/GII.1/Hawaii/1971/U.S. VLP (human norovirus GII.1).
T5 construct: mature; baculovirus VLP; VP2 may be present
Kind of assay: VLP ELISA.

The target of assay [6] is T6, Hu/NoV/GII.4/MD2004/2004/U.S. VLP (human norovirus GII.4).
T6 construct: mature; baculovirus VLP; VP2 may be present; also called MD2004 VLP
Kind of assay: VLP ELISA.

For assay [7], the target named is T7, Hu/NoV/GII.2/Henryton/1971/U.S. VLP (human norovirus GII.2).
T7 construct: mature; baculovirus VLP; VP2 may be present
Nature of the assay: VLP ELISA.

The target in assay [8] is T8, Hu/NoV/GII.7/DC119/U.S. VLP (human norovirus GII.7).
T8 construct: mature; baculovirus VLP; VP2 may be present
Kind of assay: VLP ELISA.

Assay [9] has as its target T9, Hu/NoV/GII.14/M7/1999/U.S. VLP (human norovirus GII.14).
T9 construct: mature; baculovirus VLP; VP2 may be present
Kind of assay: VLP ELISA.

Assay [10] has as its target T10, Hu/NoV/GII.4/HS-191/2001/U.S. VLP (human norovirus GII.4).
T10 construct: mature; baculovirus VLP; VP2 may be present
Nature of the assay: VLP ELISA.

Assay [11] has as its target T11, Hu/NoV/GII.4/MD145-12/1997/U.S. VLP (human norovirus GII.4).
T11 construct: mature; baculovirus VLP; VP2 may be present
Kind of assay: VLP ELISA.

Assay [12] addresses T12, Hu/GII.6/Bethesda/2012/U.S. VLP (human norovirus GII.6).
T12 construct: mature; baculovirus VLP; VP2 may be present
Kind of assay: VLP ELISA.

Assay [13] concerns the target T13, Toronto VP1 peptide 517-533 (NoV Toronto strain, also: biotinylated (position not given here)).
T13 construct: 17-mer of the P domain peptide library
T13 peptide: ESWVNPFYTLAPMGTGN
Nature of the assay: ELISA on biotinylated peptide. Here is the method: (§1) For this assay, a peptidic library of 67 peptides corresponding to the P domain of the VP1 amino acid sequence from NoV Toronto strain was synthetized. The peptides were 17 amino acids long, with 5 amino acids overlapping with the previous and the next peptide of the sequence. Neutravidin coated plates (PIERCE®) were used for this assay. The plates were coated with each biotinylated peptide in duplicates (2 μl of peptide/100 μl of PBS 0.1% BSA per well) overnight at 4° C. Then, after washing the plates, 100 ng/well of 7.5 VHH were added and the plates were incubated for 2 hours at room temperature. The plates were washed and incubated with rabbit anti-VHH serum (1/8,000) and HRP-conjugated goat anti-rabbit immunoglobulin G (1:2,000) (KPL). The signal was developed with ABTS/H₂O₂.

Assay [14] addresses T14, Toronto VP1 peptide 507-523 (NoV Toronto strain, also: biotinylated (position not given here)).
T14 construct: 17-mer of the P domain peptide library
T14 peptide: TVPPNGYFRFESWVNPF
Nature of the assay: ELISA on biotinylated peptide. Here is the method:
as §1

Assay [15] concerns the target T15, Toronto VP1 peptide 522-538 (NoV Toronto strain, also: biotinylated (position not given here)).
T15 construct: 17-mer of the P domain peptide library
T15 peptide: PFYTLAPMGTGNGRRRI
Nature of the assay: ELISA on biotinylated peptide. As for the experimental part:
as §1

Assay [16] addresses T16, Toronto VP1 peptide 512-528 (NoV Toronto strain, also: biotinylated (position not given here)).
T16 construct: 17-mer of the P domain peptide library, captured on neutravidin plates
T16 peptide: GYFRFESWVNPFYTLAP
Kind of assay: ELISA on biotinylated peptide. Here is the method:
as §1

The target in assay [17] is T11, Hu/NoV/GII.4/MD145-12/1997/U.S. VLP. Kind of assay: cell-based or functional assay.

No end group written: not given here.

B1: VHH 7.5 (VHH)
VHH: QVKLQESGGGLVQAGESLRLSCAASGSNFSINGVGWYRQAPGKQRELVAGITNGGYTSYADSVKGRFTISTDNAKNTVYLQMNSLRPEDTAVYYCNANFQIHRSGADYVRNYWGQGTQVTVSA
notes: llama VHH, MD2004 library; pHEN6, C-terminal His6 tag; also called clone 7.5
With B1, the “minimum concentration of VHH able to recognize 100 ng of VLP” value in [1] was determined as 1 ng/well; in assay [2], 0.5 ng/well; in assay [3] it was 2 ng/well; in assay [4], 2 ng/well; in assay [5], 1 ng/well; in assay [6], 0.5 ng/well. Also, the “minimum concentration of VHH able to recognize 100 ng of VLP” value in assay [7] was 1 ng/well; in assay [8], 1 ng/well; in [9], 1 ng/well; in assay [10], 2 ng/well; in assay [11] it was 0.5 ng/well; in assay [12] it was 1 ng/well. For the same molecule, the binding result in [13] is reported as “binds”; in assay [14], “no binding (tested: 100 ng/well)”; in [15], “no binding (tested: 100 ng/well)”; in assay [16], “binds”. Also, the “HAI titer, B Rh+ RBC” value in assay [17] was determined as 0.78 µg/mL.

(Values after patent US20200283507A1 (US Dept. of Health and Human Services, published 2020).)
